Assay [1] deals with T1, Spectrin (purified from human erythrocytes, Sigma, #S3644) (human, UniProt P02549 1-2419; P11277 2-2137).
T1 construct: mature; A bought native preparation; also called purified spectrin
As to the kind of experiment: ELISA, spectrin coated, biotinylated soluble protein, SA-HRP. On the procedure:
ELISA plates (Costar, Broadway, Cambridge, UK) were coated overnight at 4° C. with […] of Spectrin (purified from human erythrocytes, Sigma, #S3644) or Actin (Sigma). Unbound proteins were washed away (PBS, 0.05% Tween-20), and the ELISA plates blocked with PBS, 1% BSA. Serially diluted biotinylated purified mClec9A-ecto, mClec9A-CTLD and Cire soluble proteins were plated (PBS, 1% BSA) and incubated at 4° C. overnight. Bound soluble proteins were detected using Streptavidin-HRP and visualised using ABTS.
Background: An ELISA detects its analyte on a solid surface through an enzyme-linked reagent.

Assay [2] addresses T2, RNF41 isoform encoded by RNF41 transcript variant 2 (Accession number NM-194358), GST-tagged, on the … (human, UniProt Q5R7T5 72-317 (Pongo abelii entry)).
T2 construct: A bought array (Invitrogen); also called isoforms of RNF41; not shown: GST tag of the array protein
T2 sequence: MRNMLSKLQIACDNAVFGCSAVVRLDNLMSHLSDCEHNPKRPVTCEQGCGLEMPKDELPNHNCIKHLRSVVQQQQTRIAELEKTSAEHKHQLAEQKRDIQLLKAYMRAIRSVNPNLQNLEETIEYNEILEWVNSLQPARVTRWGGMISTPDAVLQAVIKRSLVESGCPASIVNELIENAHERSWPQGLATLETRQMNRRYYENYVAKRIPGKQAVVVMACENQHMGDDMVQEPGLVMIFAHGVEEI
The assay is described as follows: human protein microarray (ProtoArray v4.1), biotinylated probe, Streptavidin-Alexa Fluor647. The protocol: Biotinylated purified soluble mClec9A-ecto and Cire (control) were diluted to 50 μg/ml in Casein Washing Buffer (Invitrogen) and hybridised to Human protein microarrays using the “ProtoArray Human Protein Microarray v4.1 Protein-Protein Interaction (PPI) kit for biotinylated proteins” (Invitrogen, #PAH05241011) as per manufacturer's instructions. Binding of the biotinylated proteins was detected using Streptavidin-Alexa Fluor647, and images acquired using a fluorescence microarray scanner (GenePix4000B scanner, Axon Instruments). Positive interactions were identified using the ProtoArray Prospector software (Invitrogen).

Assay [3] deals with T3, membrane bound mouse 5B6 on transiently transfected 293T cells (full length untagged m5B6, pIRES-Neo) (mouse).
T3 construct: also called mouse Clec9A
T3 chain: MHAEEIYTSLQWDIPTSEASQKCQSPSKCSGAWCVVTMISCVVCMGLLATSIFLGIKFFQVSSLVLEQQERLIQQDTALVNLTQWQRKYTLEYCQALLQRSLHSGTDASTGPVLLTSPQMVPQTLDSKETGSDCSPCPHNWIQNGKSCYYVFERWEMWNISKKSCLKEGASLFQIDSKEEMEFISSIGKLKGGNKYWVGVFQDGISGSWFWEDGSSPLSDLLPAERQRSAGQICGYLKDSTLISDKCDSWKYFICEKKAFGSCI
The assay is described as follows: flow cytometry on transiently transfected live 293T cells, soluble FLAG-tagged protein. From the text:
(§1) Two-three days later, cells were harvested and surface immunofluorescence labeled using either (1) soluble FLAG-tagged biotinylated m5B6, h5B6 and Cire, and detected with Streptavidin PE, or (2) soluble FLAG-tagged 5B6, biotinylated anti-FLAG mAb 9H10, and Streptavidin-PE. Live cells were gated on forward and side scatter, or by propidium iodide exclusion and analysed for their surface binding of soluble 5B6.
In general terms: A flow cytometer gives signals particle by particle.

For assay [4], the target named is T4, membrane bound human 5B6 on transiently transfected 293T cells (full length untagged h5B6, pIRES-Neo) (human, UniProt Q6UXN8 1-241).
T4 construct: also called human CLEC9A
The description is as above.
Text: as §1

In assay [5] the target is T5, GST protein (control, plasmid control) (UniProt P08515 1-218 = GST).
T5 construct: also called GST alone; GST control
The assay is described as follows: pull-down on glutathione beads, anti-FLAG Western blot. On the procedure: (§2) Glutathione Sepharose resin coupled with either GST or GST-RNF41 proteins was resuspended in the binding buffer (0.2% NP-40 and 2% glycerol in 20 mM Tris-buffered saline, pH 7.5 containing complete protease inhibitor cocktail mixture (Roche) and 1 mM PMSF) and mixed with 1 μg/m purified FLAG-tagged soluble Clec9A (also in binding buffer) and incubated at 4° C. on a rotating wheel for 2 hours. The beads were washed extensively with the binding buffer to remove unbound proteins. Bound proteins were eluted from the beads by the addition of 2×SDS reducing sample and heated at 92° C. for 5 minutes. The eluted proteins were separated by SDS-PAGE followed by Western blot with anti-FLAG antibody.
(§3) The inventors subcloned and expressed full length RNF41 (RNF41FL), and RNF41 transcript variant 2 (RNF41₇₂₋₃₁₇) as GST-RNF41 fusion proteins in bacterial cells. The fusion proteins were immobilized onto glutathione beads, and incubated with mClec9A-ecto or with the control mClec12A-ecto. mClec9A-ecto directly bound to both GST-RNF41FL and GST-RNF41₇₂₋₃₁₇, but not to GST alone (FIG. 13). […] This confirmed that mClec9A binds specifically to RNF41.
In general terms: In western blotting, separated proteins are transferred to a membrane and probed.

In assay [6] the target is T6, GST-RNF41 72-317 (RNF41 transcript variant 2 as glutathione S-transferase fusion protein) (human, UniProt Q5R7T5 72-317 (Pongo abelii entry), N-terminal GST fusion, immobilised on Glutathione-Sepharose beads; carrier not in the letters).
T6 construct: Expressed in BL21 (DE3) E. coli and immobilised on Glutathione-Sepharose 4B; not shown: GST carrier (glutathione S-transferase of the modified pGEX-2T vector) and any linker at the N end
T6 sequence: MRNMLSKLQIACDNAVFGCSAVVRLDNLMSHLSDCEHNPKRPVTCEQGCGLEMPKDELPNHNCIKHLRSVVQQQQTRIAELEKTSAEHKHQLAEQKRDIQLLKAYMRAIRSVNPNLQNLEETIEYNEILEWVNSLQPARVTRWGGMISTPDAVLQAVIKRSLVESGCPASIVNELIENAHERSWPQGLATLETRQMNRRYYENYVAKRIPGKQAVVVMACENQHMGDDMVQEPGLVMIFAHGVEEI
The assay is described as above. On the procedure:
as §2, §3

Assay [7] concerns the target T7, GST-RNF41FL (full length RNF41 as glutathione S-transferase fusion protein) (human, UniProt Q5R7T5 1-317 (Pongo abelii entry)).
T7 construct: Expressed in BL21 (DE3) E. coli, solubilised with Sarcosyl and immobilised on Glutathione-Sepharose 4B; also called GST-RNF41 fusion protein; not shown: glutathione S-transferase (GST) of a modified pGEX-2T vector (GE Healthcare)
T7 sequence: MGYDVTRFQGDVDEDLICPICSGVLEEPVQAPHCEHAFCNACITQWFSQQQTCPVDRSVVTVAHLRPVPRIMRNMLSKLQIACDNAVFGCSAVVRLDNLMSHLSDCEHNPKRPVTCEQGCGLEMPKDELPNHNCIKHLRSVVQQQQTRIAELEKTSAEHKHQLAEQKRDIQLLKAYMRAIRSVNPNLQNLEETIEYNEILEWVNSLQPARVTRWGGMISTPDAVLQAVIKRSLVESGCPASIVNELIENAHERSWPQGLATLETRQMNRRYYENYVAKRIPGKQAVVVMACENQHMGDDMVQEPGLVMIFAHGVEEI
The assay is described as above. On the procedure:
as §2, §3

This is an account of results in patent US20120039806A1 (BURNET INSTITUTE, published 2012).

T4 sequence (Q6UXN8 whole entry): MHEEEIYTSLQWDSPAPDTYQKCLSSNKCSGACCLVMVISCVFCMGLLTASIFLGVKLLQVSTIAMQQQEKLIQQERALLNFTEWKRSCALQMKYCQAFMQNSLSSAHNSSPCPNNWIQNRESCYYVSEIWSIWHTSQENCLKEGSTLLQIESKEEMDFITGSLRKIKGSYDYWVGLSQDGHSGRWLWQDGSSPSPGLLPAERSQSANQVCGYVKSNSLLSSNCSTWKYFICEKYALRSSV
T1 sequence (P02549 whole entry, chain 1 of 2): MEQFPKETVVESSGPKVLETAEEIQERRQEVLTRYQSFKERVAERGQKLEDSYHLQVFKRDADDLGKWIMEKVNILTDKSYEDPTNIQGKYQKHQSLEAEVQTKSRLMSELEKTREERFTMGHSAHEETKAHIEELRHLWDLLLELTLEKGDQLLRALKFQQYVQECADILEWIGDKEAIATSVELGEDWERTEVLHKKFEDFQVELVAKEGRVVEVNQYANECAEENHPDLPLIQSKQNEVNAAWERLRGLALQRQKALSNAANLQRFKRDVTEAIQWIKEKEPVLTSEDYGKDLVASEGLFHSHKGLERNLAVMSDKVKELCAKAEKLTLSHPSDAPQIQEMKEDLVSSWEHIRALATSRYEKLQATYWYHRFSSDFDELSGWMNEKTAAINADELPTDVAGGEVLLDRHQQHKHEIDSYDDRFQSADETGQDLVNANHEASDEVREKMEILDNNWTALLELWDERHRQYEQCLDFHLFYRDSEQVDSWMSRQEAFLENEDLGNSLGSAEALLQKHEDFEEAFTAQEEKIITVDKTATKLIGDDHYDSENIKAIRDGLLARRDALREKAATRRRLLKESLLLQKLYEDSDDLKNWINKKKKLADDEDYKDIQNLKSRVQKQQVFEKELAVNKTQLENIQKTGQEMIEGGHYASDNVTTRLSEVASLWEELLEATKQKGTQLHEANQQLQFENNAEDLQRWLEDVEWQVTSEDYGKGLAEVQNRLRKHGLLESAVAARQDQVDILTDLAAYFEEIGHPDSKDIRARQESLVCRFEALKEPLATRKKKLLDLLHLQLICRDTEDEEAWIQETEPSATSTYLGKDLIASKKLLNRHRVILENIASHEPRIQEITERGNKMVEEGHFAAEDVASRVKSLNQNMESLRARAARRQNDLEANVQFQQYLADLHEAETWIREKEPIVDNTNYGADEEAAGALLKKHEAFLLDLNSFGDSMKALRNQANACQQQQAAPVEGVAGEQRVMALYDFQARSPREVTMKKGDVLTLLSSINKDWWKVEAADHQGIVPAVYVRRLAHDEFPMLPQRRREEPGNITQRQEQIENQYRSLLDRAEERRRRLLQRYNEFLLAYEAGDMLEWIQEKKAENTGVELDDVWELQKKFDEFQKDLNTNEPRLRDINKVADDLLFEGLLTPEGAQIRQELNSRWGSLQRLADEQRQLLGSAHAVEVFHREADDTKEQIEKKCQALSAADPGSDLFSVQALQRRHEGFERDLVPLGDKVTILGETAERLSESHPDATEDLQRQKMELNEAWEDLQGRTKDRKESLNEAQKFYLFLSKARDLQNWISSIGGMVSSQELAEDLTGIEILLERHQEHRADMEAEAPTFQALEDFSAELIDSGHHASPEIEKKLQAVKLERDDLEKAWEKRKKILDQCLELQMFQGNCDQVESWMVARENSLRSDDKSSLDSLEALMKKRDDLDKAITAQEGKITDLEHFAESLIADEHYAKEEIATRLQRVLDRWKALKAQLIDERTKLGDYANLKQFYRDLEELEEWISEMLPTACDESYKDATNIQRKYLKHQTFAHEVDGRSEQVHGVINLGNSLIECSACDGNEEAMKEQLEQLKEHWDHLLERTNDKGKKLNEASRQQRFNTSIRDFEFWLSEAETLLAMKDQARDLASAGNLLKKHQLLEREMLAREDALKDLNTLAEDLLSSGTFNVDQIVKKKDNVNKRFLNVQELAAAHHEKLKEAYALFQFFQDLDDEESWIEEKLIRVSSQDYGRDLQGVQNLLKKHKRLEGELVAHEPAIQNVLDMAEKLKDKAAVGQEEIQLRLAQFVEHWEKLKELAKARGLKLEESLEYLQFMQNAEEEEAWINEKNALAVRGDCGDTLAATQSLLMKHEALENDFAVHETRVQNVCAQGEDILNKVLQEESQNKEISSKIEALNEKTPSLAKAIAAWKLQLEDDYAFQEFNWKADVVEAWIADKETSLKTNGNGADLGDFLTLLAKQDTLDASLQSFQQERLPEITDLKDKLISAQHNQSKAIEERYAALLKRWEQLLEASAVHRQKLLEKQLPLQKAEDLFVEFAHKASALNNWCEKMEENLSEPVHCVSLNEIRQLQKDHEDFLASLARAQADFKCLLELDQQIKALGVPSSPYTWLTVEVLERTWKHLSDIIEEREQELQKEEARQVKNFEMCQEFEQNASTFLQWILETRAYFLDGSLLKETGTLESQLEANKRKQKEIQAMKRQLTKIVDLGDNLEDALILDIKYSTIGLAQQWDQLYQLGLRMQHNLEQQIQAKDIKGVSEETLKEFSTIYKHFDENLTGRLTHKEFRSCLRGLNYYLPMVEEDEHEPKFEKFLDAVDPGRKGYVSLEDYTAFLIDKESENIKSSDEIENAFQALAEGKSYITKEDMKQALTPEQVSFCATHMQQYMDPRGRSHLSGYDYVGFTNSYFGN
T1 sequence (P11277 2-2137, chain 2 of 2): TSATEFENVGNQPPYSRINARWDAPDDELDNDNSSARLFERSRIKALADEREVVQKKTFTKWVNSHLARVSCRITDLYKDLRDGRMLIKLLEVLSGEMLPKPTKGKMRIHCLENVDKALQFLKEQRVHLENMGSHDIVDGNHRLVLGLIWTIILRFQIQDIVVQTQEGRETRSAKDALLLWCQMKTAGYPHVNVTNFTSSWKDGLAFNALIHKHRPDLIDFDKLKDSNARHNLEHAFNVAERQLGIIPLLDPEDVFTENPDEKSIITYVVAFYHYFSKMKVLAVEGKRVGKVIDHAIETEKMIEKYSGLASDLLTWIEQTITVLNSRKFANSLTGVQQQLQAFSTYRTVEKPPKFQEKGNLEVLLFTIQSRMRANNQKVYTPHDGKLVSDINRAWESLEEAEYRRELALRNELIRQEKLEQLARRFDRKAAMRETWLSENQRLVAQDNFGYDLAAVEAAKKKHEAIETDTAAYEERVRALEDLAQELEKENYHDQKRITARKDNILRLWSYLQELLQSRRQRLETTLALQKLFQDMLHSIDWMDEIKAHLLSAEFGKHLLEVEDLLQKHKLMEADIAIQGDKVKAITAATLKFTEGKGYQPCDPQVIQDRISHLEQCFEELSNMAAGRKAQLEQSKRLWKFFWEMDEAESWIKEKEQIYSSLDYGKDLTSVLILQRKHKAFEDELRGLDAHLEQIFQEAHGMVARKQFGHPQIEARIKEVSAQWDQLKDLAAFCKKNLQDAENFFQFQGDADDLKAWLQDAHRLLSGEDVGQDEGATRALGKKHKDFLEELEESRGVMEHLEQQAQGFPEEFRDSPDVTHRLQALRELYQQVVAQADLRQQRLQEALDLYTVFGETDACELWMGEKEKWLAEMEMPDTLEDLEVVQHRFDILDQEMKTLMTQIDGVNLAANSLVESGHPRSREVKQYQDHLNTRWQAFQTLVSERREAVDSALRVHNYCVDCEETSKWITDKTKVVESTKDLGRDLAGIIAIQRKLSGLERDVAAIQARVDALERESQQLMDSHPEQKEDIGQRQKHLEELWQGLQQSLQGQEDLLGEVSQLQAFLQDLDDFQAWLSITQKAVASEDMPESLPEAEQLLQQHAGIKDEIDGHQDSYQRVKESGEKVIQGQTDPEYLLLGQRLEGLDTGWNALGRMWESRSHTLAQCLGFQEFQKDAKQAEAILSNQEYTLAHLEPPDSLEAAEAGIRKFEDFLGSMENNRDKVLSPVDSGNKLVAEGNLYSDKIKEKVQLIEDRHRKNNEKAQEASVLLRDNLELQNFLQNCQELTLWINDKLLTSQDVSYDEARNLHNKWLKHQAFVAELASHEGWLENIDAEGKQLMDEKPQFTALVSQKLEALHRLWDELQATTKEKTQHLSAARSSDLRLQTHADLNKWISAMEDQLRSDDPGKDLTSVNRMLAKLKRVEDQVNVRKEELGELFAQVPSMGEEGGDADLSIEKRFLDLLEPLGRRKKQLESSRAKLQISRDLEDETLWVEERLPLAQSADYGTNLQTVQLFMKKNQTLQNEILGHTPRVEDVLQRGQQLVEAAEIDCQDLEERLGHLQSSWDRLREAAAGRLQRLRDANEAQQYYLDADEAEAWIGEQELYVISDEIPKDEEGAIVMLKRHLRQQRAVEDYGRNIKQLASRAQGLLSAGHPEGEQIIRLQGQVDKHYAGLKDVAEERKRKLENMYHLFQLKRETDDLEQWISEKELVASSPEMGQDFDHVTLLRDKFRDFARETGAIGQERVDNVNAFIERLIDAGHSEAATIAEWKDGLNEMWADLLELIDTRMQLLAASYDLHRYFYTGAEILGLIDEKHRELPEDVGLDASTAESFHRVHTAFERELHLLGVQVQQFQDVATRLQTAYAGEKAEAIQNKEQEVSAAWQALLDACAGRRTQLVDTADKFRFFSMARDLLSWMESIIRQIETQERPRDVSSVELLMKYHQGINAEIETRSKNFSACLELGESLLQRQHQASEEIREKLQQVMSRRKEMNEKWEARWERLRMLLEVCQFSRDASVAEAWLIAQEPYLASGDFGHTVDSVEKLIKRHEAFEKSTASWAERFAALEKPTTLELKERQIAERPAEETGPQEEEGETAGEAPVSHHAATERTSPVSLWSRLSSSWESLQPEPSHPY

B1: Cire-ecto (soluble FLAG-tagged C-type lectin Cire, control) (receptor, mouse, not shown: small tags and cut ends)
chain (part 1 of 2): NSGLHHILDAQKMVWNHR
chain (part 2 of 2): VKVYKIPSSQEENNQMNVYQELTQLKAGVDRLCRSCPWDWTHFQGSCYFFSVAQKSWNDSATACHNVGAQLVVIKSDEEQNFLQQTSKKRGYTWMGLIDMSKESTWYWVDGSPLTLSFMKYWSKGEPNNLGEEDCAEFRDDGWNDTKCTNKKFWICKKLSTSCPSK
modifications: biotinylated with BirA where the filing says 'biotinylated' (ELISA, microarray)
notes: extracellular domain; Control lectin; The construct is described only as similar to the Clec9A constructs; also called mouse Cire/mDCSign; biotinylated Cire-ecto
Turning to B1, the binding result in assay [1] was “no binding”; in assay [2] it was “no binding (tested: 50 µg/ml)”.

B2: hCLEC9A-ecto (tagged soluble ectodomain human Clec9A; stalk and CTLD) (receptor)
chain: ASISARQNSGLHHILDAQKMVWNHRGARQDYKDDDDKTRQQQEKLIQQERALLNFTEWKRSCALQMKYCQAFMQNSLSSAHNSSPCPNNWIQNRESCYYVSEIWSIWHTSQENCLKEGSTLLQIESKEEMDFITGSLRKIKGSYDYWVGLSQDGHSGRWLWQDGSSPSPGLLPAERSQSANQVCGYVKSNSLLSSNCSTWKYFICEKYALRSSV
notes: also called soluble FLAG-tagged h5B6; soluble human 5B6
On to B2, for which the binding result in assay [3] and in assay [4] was “binds” each time.

B3: mClec9A-ecto (tagged soluble ectodomain mouse Clec9A; stalk and CTLD) (receptor)
chain: ASISARQNSGLHHILDAQKMVWNHRGARQDYKDDDDKTREQQERLIQQDTALVNLTQWQRKYTLEYCQALLQRSLHSGTDASTGPVLLTSPQMVPQTLDSKETGSDCSPCPHNWIQNGKSCYYVFERWEMWNISKKSCLKEGASLFQIDSKEEMEFISSIGKLKGGNKYWVGVFQDGISGSWFWEDGSSPLSDLLPAERQRSAGQICGYLKDSTLISDKCDSWKYFICEKKAFGSCI
modifications: enzymatically biotinylated with BirA at the biotinylation consensus sequence where the filing says 'biotinylated' (ELISA, protein microarray); unbiotinylated FLAG-tagged protein in the pull-down and in FIG. 6
notes: also called soluble FLAG-tagged m5B6; soluble mouse 5B6
With B3, the binding result in assay [3] was “binds”; in assay [4], “binds”; in assay [5], “no binding (tested: 1 µg/m)”.

B4: mClec12A-ecto (soluble FLAG-tagged mouse Clec12A, control) (receptor, not shown: small tags and cut ends)
chain (part 1 of 2): NSGLHHILDAQKMVWNHR
chain (part 2 of 2): YTTLATEMIKSNQLQRAKEELQENVFLQLKHNLNSSKKIKNLSAMLQSTATQLCRELYSKEPEHKCKPCPKGSEWYKDSCYSQLNQYGTWQESVMACSARNASLLKVKNKDVLEFIKYKKLRYFWLALLPRKDRTQYPLSEKMFLSEESERSTDDIDKKYCGYIDRVNVYYTYCTDENNIICEETASKVQLESVLNGLPEDSR
notes: extracellular domain; Control lectin
On to B4, for which the binding result in assay [6] and in assay [7] was “no binding (tested: 1 µg/m)” in each case.
